Measurements as given in patent publication US5849261.
“And” between values parts separate entries of the source, which are not always exact repeats. Equal values may be shown once. Each block holds one binder with its values, some of them ahead of it. No end group written: not given here.

Assays:
[1] = molecular target: VIP receptor of guinea pig lung membranes (guinea pig); experiment: competition with 0.01 nM 125I-VIP, guinea pig lung membranes
[2] = molecular target: VIP receptor on human cells (human); experiment: competition with 125I-VIP on human platelets
[3] = molecular target: VIP receptor on human cells (human); experiment: competition with 125I-VIP on human PMNCs
[4] = molecular target: VIP receptor on human cells (human); experiment: competition with 125I-VIP on KU812 cells
[5] = molecular target: VIP receptor on human cells (human); experiment: competition with 125I-VIP on COLO320 cells
[6] = molecular target: VIP receptor on human cells (human); experiment: competition with 125I-VIP on HT29 cells
[7] = molecular target: VIP receptor on human cells (human); experiment: competition with 125I-VIP on HMC1 cells
[8] = molecular target: VIP receptor on human cells (human); experiment: competition with 125I-VIP on PANC1 cells

Binder: AGCHSDAVFTDNYTRLRKQMAVKKYLNSILN-NH2 [P915]
IC50 [1]: 50 nM

Binder: HSDAVFTDNYTRLRKQMAVKKYLNSILNGGC-NH2 (also: non-radioactive ReO complexed to the chelating moiety) [ReO-complexed P916]
IC50 [2]: 3 nM
IC50 [3]: 6.5 nM
IC50 [1]: 20 nM
IC50 [5]: 4 nM
IC50 [6]: 8.5 nM
IC50 [7]: 7 nM
IC50 [8]: 12.5 nM

Binder: AGCHSDAVFTDNYTRLRKQMAVKKYLNSILN-NH2 (also: non-radioactive ReO complexed to the chelating moiety) [ReO-complexed P915]
IC50 [2]: 4.5 nM
IC50 [3]: 7.5 nM
IC50 [1]: < 10 nM and > 1 nM
IC50 [5]: 6.7 nM
IC50 [6]: 7 nM
IC50 [7]: 15 nM
IC50 [8]: 14 nM

Binder: HSDAVFTDNYTRLRKQMAVKKYLNSILN-NH2 [Vasoactive intestinal peptide (VIP)]
IC50 [2]: 4 nM
IC50 [3]: 5.5 nM
IC50 [4]: 0.8 nM
IC50 [5]: 1.5 nM
IC50 [6]: 1.2 nM
IC50 [7]: 7 nM
IC50 [8]: 4.2 nM

The next lines start with the values.

IC50 [2]: 0.8 nM
IC50 [3]: 2.7 nM
IC50 [1]: 6.9 nM
Ki [1]: 6.7 nM
IC50 [4]: 1 nM
IC50 [5]: 2 nM
IC50 [6]: 2.2 nM
IC50 [7]: 7 nM
IC50 [8]: 3.7 nM
B1: ReO-complexed P917 (peptide)
peptide: HSDAVFTDNYTRLRKQMAVKKYLNSILNC
modifications: C-terminal C(BAT): S-(N6,N9-bis(2-mercapto-2-methylpropyl)-6,9-diazanonan-1-yl)cysteine; C-terminal amide; non-radioactive ReO complexed to the chelating moiety

IC50 [2]: 6 nM
IC50 [3]: 6 nM
IC50 [1]: 20 nM
IC50 [4]: 5.2 nM
IC50 [5]: 6 nM
IC50 [6]: 6.6 nM
IC50 [7]: 8.5 nM
IC50 [8]: > 10 nM
B2: ReO-complexed P887 (peptide)
peptide: HSDAVFTDNYTRLRKQMAVKKYLNSILNKGC
modifications: (ε-K): lysine 29 linked through its ε-amino group; C-terminal amide; non-radioactive ReO complexed to the chelating moiety

% inhibition @ 0.01 µM [1]: 68%
IC50 [1]: < 10 nM
B3: P887 (peptide)
peptide: HSDAVFTDNYTRLRKQMAVKKYLNSILNKGC
modifications: (ε-K): lysine 29 linked through its ε-amino group to the carboxyl group of the preceding residue; C-terminal amide

% inhibition @ 0.01 µM [1]: 79%
IC50 [1]: < 10 nM
Binder: HSDAVFTDNYTRLRKQMAVKKYLNSILNGGC-NH2 [P916]

% inhibition @ 0.01 µM [1]: 83%
IC50 [1]: < 10 nM
B4: P917 (peptide)
peptide: HSDAVFTDNYTRLRKQMAVKKYLNSILNC
modifications: C-terminal C(BAT): S-(N6,N9-bis(2-mercapto-2-methylpropyl)-6,9-diazanonan-1-yl)cysteine; C-terminal amide
